Laboratory results from patent US8969060B2, “Modified glucose dehydrogenase” (Ikeda Food Research Co., Ltd., priority 2011, dated 2015).

Experiments:
[1] = Relative enzymatic activity of GLD (DCIP/1-m-PMS, plate reader, yeast culture supernatant) with 1,10-phenanthroline present; assay type: biochemical; conditions: site-specific mutants, inhibitor final concentration 1 mM
Method in brief: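 Yeast transformants grown in YPD, 30° C., 24 h; diluted culture supernatant assayed in phosphate buffer pH 7.0 with D-glucose, DCIP and 1-m-PMS, DCIP absorbance change at 600 nm. Relative activity (%) = activity with 1 mM 1,10-phenanthroline (final, replacing methanol) divided by activity without it.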

[2] = Relative enzymatic activity of GLD (DCIP/1-m-PMS, plate reader, yeast culture supernatant) with proflavin hydrochloride present; assay type: biochemical; conditions: site-specific mutants, inhibitor final concentration 1 mM
Method in brief: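 Culture supernatant diluted and mixed with reagent of phosphate buffer pH 7.0, 1.0 M D-glucose, 3 mM DCIP, 3 mM 1-m-PMS and methanol (0.1:1:0.14:0.2:0.06). DCIP absorbance decrease at 600 nm followed; proflavin hydrochloride in methanol replaced methanol at 1 mM final. Activity expressed as % of inhibitor-free blank.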

Molecule	Relative Activity [%] 1,10-Phenanthroline [1] [%]	Relative Activity [%] Proflavin hydrochloride [2] [%]
G352P: modified GLD: SEQ ID NO: 1 with substitution G352P (protein, listed as Aspergillus terreus, SIGNAL (1)..(19)) MLGKLSFLSALSLAVAAPLSNSTSAKYDYIVIGGGTSGLAVANRLSEDPNVNVLILEAGGSVWNNPNVTNVDGYGLAFGSDIDWQYQSVNQPYGGNLSQVLRAGKALGGTSTINGMAYTRAEDVQIDAWETIGNTGWTWKNLFPYYRKSENFTVPTKSQTSLGASYEAGAHGHEGPLDVAFTQIESNNLTTYLNRTFQGMGLPWTEDVNGGKMRGFNLYPSTVNLEEYVREDAARAYYWPYKSRPNLHVLLNTFANRIVWDGEAHDGHITASGVEITSRNGTVRVINAEKEVIVSAGALKSPAILELSGIGNPSVLDKHNIPVKVNLPTVGENLQDQVNSHMDASGNTSISPTKAVSYPDVYDVFGDEAESVAKQIRANLKQYAADTAKANGNIMKAADLERLFEVQYDLIFKGRVPIAEVLNYPGSATSVFAEFWALLPFARGSVHIGSSNPAEFPVINPNYFMLDWDAKSYVAVAKYIRRSFESYPLSSIVKESTPGYDVIPRNASEQSWKEWVFDKNYRSNFHPVGTAAMMPREIGGVVDERLNVYGTTNVRVVDASVLPFQVCGHLVSTLYAVAERAADLIKADAGRR	89.8	49.1
G352Q: modified GLD: SEQ ID NO: 1 with substitution G352Q (protein, listed as Aspergillus terreus, SIGNAL (1)..(19)) MLGKLSFLSALSLAVAAPLSNSTSAKYDYIVIGGGTSGLAVANRLSEDPNVNVLILEAGGSVWNNPNVTNVDGYGLAFGSDIDWQYQSVNQPYGGNLSQVLRAGKALGGTSTINGMAYTRAEDVQIDAWETIGNTGWTWKNLFPYYRKSENFTVPTKSQTSLGASYEAGAHGHEGPLDVAFTQIESNNLTTYLNRTFQGMGLPWTEDVNGGKMRGFNLYPSTVNLEEYVREDAARAYYWPYKSRPNLHVLLNTFANRIVWDGEAHDGHITASGVEITSRNGTVRVINAEKEVIVSAGALKSPAILELSGIGNPSVLDKHNIPVKVNLPTVGENLQDQVNSHMDASGNTSISQTKAVSYPDVYDVFGDEAESVAKQIRANLKQYAADTAKANGNIMKAADLERLFEVQYDLIFKGRVPIAEVLNYPGSATSVFAEFWALLPFARGSVHIGSSNPAEFPVINPNYFMLDWDAKSYVAVAKYIRRSFESYPLSSIVKESTPGYDVIPRNASEQSWKEWVFDKNYRSNFHPVGTAAMMPREIGGVVDERLNVYGTTNVRVVDASVLPFQVCGHLVSTLYAVAERAADLIKADAGRR	90.4	56.4
G352R: modified GLD: SEQ ID NO: 1 with substitution G352R (protein, listed as Aspergillus terreus, SIGNAL (1)..(19)) MLGKLSFLSALSLAVAAPLSNSTSAKYDYIVIGGGTSGLAVANRLSEDPNVNVLILEAGGSVWNNPNVTNVDGYGLAFGSDIDWQYQSVNQPYGGNLSQVLRAGKALGGTSTINGMAYTRAEDVQIDAWETIGNTGWTWKNLFPYYRKSENFTVPTKSQTSLGASYEAGAHGHEGPLDVAFTQIESNNLTTYLNRTFQGMGLPWTEDVNGGKMRGFNLYPSTVNLEEYVREDAARAYYWPYKSRPNLHVLLNTFANRIVWDGEAHDGHITASGVEITSRNGTVRVINAEKEVIVSAGALKSPAILELSGIGNPSVLDKHNIPVKVNLPTVGENLQDQVNSHMDASGNTSISRTKAVSYPDVYDVFGDEAESVAKQIRANLKQYAADTAKANGNIMKAADLERLFEVQYDLIFKGRVPIAEVLNYPGSATSVFAEFWALLPFARGSVHIGSSNPAEFPVINPNYFMLDWDAKSYVAVAKYIRRSFESYPLSSIVKESTPGYDVIPRNASEQSWKEWVFDKNYRSNFHPVGTAAMMPREIGGVVDERLNVYGTTNVRVVDASVLPFQVCGHLVSTLYAVAERAADLIKADAGRR	80.3	68.1
G352S: modified GLD: SEQ ID NO: 1 with substitution G352S (protein, listed as Aspergillus terreus, SIGNAL (1)..(19)) MLGKLSFLSALSLAVAAPLSNSTSAKYDYIVIGGGTSGLAVANRLSEDPNVNVLILEAGGSVWNNPNVTNVDGYGLAFGSDIDWQYQSVNQPYGGNLSQVLRAGKALGGTSTINGMAYTRAEDVQIDAWETIGNTGWTWKNLFPYYRKSENFTVPTKSQTSLGASYEAGAHGHEGPLDVAFTQIESNNLTTYLNRTFQGMGLPWTEDVNGGKMRGFNLYPSTVNLEEYVREDAARAYYWPYKSRPNLHVLLNTFANRIVWDGEAHDGHITASGVEITSRNGTVRVINAEKEVIVSAGALKSPAILELSGIGNPSVLDKHNIPVKVNLPTVGENLQDQVNSHMDASGNTSISSTKAVSYPDVYDVFGDEAESVAKQIRANLKQYAADTAKANGNIMKAADLERLFEVQYDLIFKGRVPIAEVLNYPGSATSVFAEFWALLPFARGSVHIGSSNPAEFPVINPNYFMLDWDAKSYVAVAKYIRRSFESYPLSSIVKESTPGYDVIPRNASEQSWKEWVFDKNYRSNFHPVGTAAMMPREIGGVVDERLNVYGTTNVRVVDASVLPFQVCGHLVSTLYAVAERAADLIKADAGRR	62.9	38.7
G352T: modified GLD: SEQ ID NO: 1 with substitution G352T (protein, listed as Aspergillus terreus, SIGNAL (1)..(19)) MLGKLSFLSALSLAVAAPLSNSTSAKYDYIVIGGGTSGLAVANRLSEDPNVNVLILEAGGSVWNNPNVTNVDGYGLAFGSDIDWQYQSVNQPYGGNLSQVLRAGKALGGTSTINGMAYTRAEDVQIDAWETIGNTGWTWKNLFPYYRKSENFTVPTKSQTSLGASYEAGAHGHEGPLDVAFTQIESNNLTTYLNRTFQGMGLPWTEDVNGGKMRGFNLYPSTVNLEEYVREDAARAYYWPYKSRPNLHVLLNTFANRIVWDGEAHDGHITASGVEITSRNGTVRVINAEKEVIVSAGALKSPAILELSGIGNPSVLDKHNIPVKVNLPTVGENLQDQVNSHMDASGNTSISTTKAVSYPDVYDVFGDEAESVAKQIRANLKQYAADTAKANGNIMKAADLERLFEVQYDLIFKGRVPIAEVLNYPGSATSVFAEFWALLPFARGSVHIGSSNPAEFPVINPNYFMLDWDAKSYVAVAKYIRRSFESYPLSSIVKESTPGYDVIPRNASEQSWKEWVFDKNYRSNFHPVGTAAMMPREIGGVVDERLNVYGTTNVRVVDASVLPFQVCGHLVSTLYAVAERAADLIKADAGRR	85.4	44.1
G352V: modified GLD: SEQ ID NO: 1 with substitution G352V (protein, listed as Aspergillus terreus, SIGNAL (1)..(19)) MLGKLSFLSALSLAVAAPLSNSTSAKYDYIVIGGGTSGLAVANRLSEDPNVNVLILEAGGSVWNNPNVTNVDGYGLAFGSDIDWQYQSVNQPYGGNLSQVLRAGKALGGTSTINGMAYTRAEDVQIDAWETIGNTGWTWKNLFPYYRKSENFTVPTKSQTSLGASYEAGAHGHEGPLDVAFTQIESNNLTTYLNRTFQGMGLPWTEDVNGGKMRGFNLYPSTVNLEEYVREDAARAYYWPYKSRPNLHVLLNTFANRIVWDGEAHDGHITASGVEITSRNGTVRVINAEKEVIVSAGALKSPAILELSGIGNPSVLDKHNIPVKVNLPTVGENLQDQVNSHMDASGNTSISVTKAVSYPDVYDVFGDEAESVAKQIRANLKQYAADTAKANGNIMKAADLERLFEVQYDLIFKGRVPIAEVLNYPGSATSVFAEFWALLPFARGSVHIGSSNPAEFPVINPNYFMLDWDAKSYVAVAKYIRRSFESYPLSSIVKESTPGYDVIPRNASEQSWKEWVFDKNYRSNFHPVGTAAMMPREIGGVVDERLNVYGTTNVRVVDASVLPFQVCGHLVSTLYAVAERAADLIKADAGRR	87.0	41.6
G352W: modified GLD: SEQ ID NO: 1 with substitution G352W (protein, listed as Aspergillus terreus, SIGNAL (1)..(19)) MLGKLSFLSALSLAVAAPLSNSTSAKYDYIVIGGGTSGLAVANRLSEDPNVNVLILEAGGSVWNNPNVTNVDGYGLAFGSDIDWQYQSVNQPYGGNLSQVLRAGKALGGTSTINGMAYTRAEDVQIDAWETIGNTGWTWKNLFPYYRKSENFTVPTKSQTSLGASYEAGAHGHEGPLDVAFTQIESNNLTTYLNRTFQGMGLPWTEDVNGGKMRGFNLYPSTVNLEEYVREDAARAYYWPYKSRPNLHVLLNTFANRIVWDGEAHDGHITASGVEITSRNGTVRVINAEKEVIVSAGALKSPAILELSGIGNPSVLDKHNIPVKVNLPTVGENLQDQVNSHMDASGNTSISWTKAVSYPDVYDVFGDEAESVAKQIRANLKQYAADTAKANGNIMKAADLERLFEVQYDLIFKGRVPIAEVLNYPGSATSVFAEFWALLPFARGSVHIGSSNPAEFPVINPNYFMLDWDAKSYVAVAKYIRRSFESYPLSSIVKESTPGYDVIPRNASEQSWKEWVFDKNYRSNFHPVGTAAMMPREIGGVVDERLNVYGTTNVRVVDASVLPFQVCGHLVSTLYAVAERAADLIKADAGRR	81.2	48.1
G352Y: modified GLD: SEQ ID NO: 1 with substitution G352Y (protein, listed as Aspergillus terreus, SIGNAL (1)..(19)) MLGKLSFLSALSLAVAAPLSNSTSAKYDYIVIGGGTSGLAVANRLSEDPNVNVLILEAGGSVWNNPNVTNVDGYGLAFGSDIDWQYQSVNQPYGGNLSQVLRAGKALGGTSTINGMAYTRAEDVQIDAWETIGNTGWTWKNLFPYYRKSENFTVPTKSQTSLGASYEAGAHGHEGPLDVAFTQIESNNLTTYLNRTFQGMGLPWTEDVNGGKMRGFNLYPSTVNLEEYVREDAARAYYWPYKSRPNLHVLLNTFANRIVWDGEAHDGHITASGVEITSRNGTVRVINAEKEVIVSAGALKSPAILELSGIGNPSVLDKHNIPVKVNLPTVGENLQDQVNSHMDASGNTSISYTKAVSYPDVYDVFGDEAESVAKQIRANLKQYAADTAKANGNIMKAADLERLFEVQYDLIFKGRVPIAEVLNYPGSATSVFAEFWALLPFARGSVHIGSSNPAEFPVINPNYFMLDWDAKSYVAVAKYIRRSFESYPLSSIVKESTPGYDVIPRNASEQSWKEWVFDKNYRSNFHPVGTAAMMPREIGGVVDERLNVYGTTNVRVVDASVLPFQVCGHLVSTLYAVAERAADLIKADAGRR	92.4	52.8
